Measured values: patent publication US20130259873A1

Assays:
[1] = target: high molecular weight melanoma associated antigen (HMW-MAA), also known as CSPG4 (human) (UniProt Q6UVK1); experiment: flow cytometry, melanoma cell line WM1158 (BRAF V600E), PE-conjugated anti-mouse IgG
[2] = target: high molecular weight melanoma associated antigen (HMW-MAA), also known as CSPG4 (human) (UniProt Q6UVK1); experiment: flow cytometry, melanoma cell line SK-MEL-28 (BRAF V600E), PE-conjugated anti-mouse IgG
[3] = target: high molecular weight melanoma associated antigen (HMW-MAA), also known as CSPG4 (human) (UniProt Q6UVK1); experiment: flow cytometry, melanoma cell line SK-MEL-19 (BRAF V600E), PE-conjugated anti-mouse IgG
[4] = target: high molecular weight melanoma associated antigen (HMW-MAA), also known as CSPG4 (human) (UniProt Q6UVK1); experiment: flow cytometry, melanoma cell line SK-MEL-37 (BRAF V600E), PE-conjugated anti-mouse IgG
[5] = target: high molecular weight melanoma associated antigen (HMW-MAA), also known as CSPG4 (human) (UniProt Q6UVK1); experiment: flow cytometry, melanoma cell line Colo38 (BRAF V600E), PE-conjugated anti-mouse IgG
[6] = target: high molecular weight melanoma associated antigen (HMW-MAA), also known as CSPG4 (human) (UniProt Q6UVK1); experiment: flow cytometry, melanoma cell line UACC-257 (BRAF V600E), PE-conjugated anti-mouse IgG
[7] = target: high molecular weight melanoma associated antigen (HMW-MAA), also known as CSPG4 (human) (UniProt Q6UVK1); experiment: flow cytometry, melanoma cell line 1287 (BRAF V600E), PE-conjugated anti-mouse IgG
[8] = target: high molecular weight melanoma associated antigen (HMW-MAA), also known as CSPG4 (human) (UniProt Q6UVK1); experiment: flow cytometry, melanoma cell line 526 (BRAF V600E), PE-conjugated anti-mouse IgG
[9] = target: high molecular weight melanoma associated antigen (HMW-MAA), also known as CSPG4 (human) (UniProt Q6UVK1); experiment: flow cytometry, melanoma cell line M233 (BRAF V600E), PE-conjugated anti-mouse IgG
[10] = target: high molecular weight melanoma associated antigen (HMW-MAA), also known as CSPG4 (human) (UniProt Q6UVK1); experiment: flow cytometry, melanoma cell line Mel624 (BRAF V600E), PE-conjugated anti-mouse IgG
[11] = target: high molecular weight melanoma associated antigen (HMW-MAA), also known as CSPG4 (human) (UniProt Q6UVK1); experiment: flow cytometry, melanoma cell line MV3 (BRAF wild type), PE-conjugated anti-mouse IgG
[12] = target: high molecular weight melanoma associated antigen (HMW-MAA), also known as CSPG4 (human) (UniProt Q6UVK1); experiment: flow cytometry, melanoma cell line M21 (BRAF V600E), PE-conjugated anti-mouse IgG
[13] = target: high molecular weight melanoma associated antigen (HMW-MAA), also known as CSPG4 (human) (UniProt Q6UVK1); experiment: flow cytometry, melanoma cell line SK-MEL-5 (BRAF V600E), PE-conjugated anti-mouse IgG
[14] = target: high molecular weight melanoma associated antigen (HMW-MAA), also known as CSPG4 (human) (UniProt Q6UVK1); experiment: flow cytometry, melanoma cell line 1495 (BRAF V600E), PE-conjugated anti-mouse IgG
[15] = target: high molecular weight melanoma associated antigen (HMW-MAA), also known as CSPG4 (human) (UniProt Q6UVK1); experiment: flow cytometry, melanoma cell line 836 (BRAF V600E), PE-conjugated anti-mouse IgG
[16] = target: high molecular weight melanoma associated antigen (HMW-MAA), also known as CSPG4 (human) (UniProt Q6UVK1); experiment: flow cytometry, melanoma cell line 677 (BRAF V600E), PE-conjugated anti-mouse IgG

Chain of high molecular weight melanoma associated antigen (HMW-MAA), also known as CSPG4 (human) (Q6UVK1 30-2322): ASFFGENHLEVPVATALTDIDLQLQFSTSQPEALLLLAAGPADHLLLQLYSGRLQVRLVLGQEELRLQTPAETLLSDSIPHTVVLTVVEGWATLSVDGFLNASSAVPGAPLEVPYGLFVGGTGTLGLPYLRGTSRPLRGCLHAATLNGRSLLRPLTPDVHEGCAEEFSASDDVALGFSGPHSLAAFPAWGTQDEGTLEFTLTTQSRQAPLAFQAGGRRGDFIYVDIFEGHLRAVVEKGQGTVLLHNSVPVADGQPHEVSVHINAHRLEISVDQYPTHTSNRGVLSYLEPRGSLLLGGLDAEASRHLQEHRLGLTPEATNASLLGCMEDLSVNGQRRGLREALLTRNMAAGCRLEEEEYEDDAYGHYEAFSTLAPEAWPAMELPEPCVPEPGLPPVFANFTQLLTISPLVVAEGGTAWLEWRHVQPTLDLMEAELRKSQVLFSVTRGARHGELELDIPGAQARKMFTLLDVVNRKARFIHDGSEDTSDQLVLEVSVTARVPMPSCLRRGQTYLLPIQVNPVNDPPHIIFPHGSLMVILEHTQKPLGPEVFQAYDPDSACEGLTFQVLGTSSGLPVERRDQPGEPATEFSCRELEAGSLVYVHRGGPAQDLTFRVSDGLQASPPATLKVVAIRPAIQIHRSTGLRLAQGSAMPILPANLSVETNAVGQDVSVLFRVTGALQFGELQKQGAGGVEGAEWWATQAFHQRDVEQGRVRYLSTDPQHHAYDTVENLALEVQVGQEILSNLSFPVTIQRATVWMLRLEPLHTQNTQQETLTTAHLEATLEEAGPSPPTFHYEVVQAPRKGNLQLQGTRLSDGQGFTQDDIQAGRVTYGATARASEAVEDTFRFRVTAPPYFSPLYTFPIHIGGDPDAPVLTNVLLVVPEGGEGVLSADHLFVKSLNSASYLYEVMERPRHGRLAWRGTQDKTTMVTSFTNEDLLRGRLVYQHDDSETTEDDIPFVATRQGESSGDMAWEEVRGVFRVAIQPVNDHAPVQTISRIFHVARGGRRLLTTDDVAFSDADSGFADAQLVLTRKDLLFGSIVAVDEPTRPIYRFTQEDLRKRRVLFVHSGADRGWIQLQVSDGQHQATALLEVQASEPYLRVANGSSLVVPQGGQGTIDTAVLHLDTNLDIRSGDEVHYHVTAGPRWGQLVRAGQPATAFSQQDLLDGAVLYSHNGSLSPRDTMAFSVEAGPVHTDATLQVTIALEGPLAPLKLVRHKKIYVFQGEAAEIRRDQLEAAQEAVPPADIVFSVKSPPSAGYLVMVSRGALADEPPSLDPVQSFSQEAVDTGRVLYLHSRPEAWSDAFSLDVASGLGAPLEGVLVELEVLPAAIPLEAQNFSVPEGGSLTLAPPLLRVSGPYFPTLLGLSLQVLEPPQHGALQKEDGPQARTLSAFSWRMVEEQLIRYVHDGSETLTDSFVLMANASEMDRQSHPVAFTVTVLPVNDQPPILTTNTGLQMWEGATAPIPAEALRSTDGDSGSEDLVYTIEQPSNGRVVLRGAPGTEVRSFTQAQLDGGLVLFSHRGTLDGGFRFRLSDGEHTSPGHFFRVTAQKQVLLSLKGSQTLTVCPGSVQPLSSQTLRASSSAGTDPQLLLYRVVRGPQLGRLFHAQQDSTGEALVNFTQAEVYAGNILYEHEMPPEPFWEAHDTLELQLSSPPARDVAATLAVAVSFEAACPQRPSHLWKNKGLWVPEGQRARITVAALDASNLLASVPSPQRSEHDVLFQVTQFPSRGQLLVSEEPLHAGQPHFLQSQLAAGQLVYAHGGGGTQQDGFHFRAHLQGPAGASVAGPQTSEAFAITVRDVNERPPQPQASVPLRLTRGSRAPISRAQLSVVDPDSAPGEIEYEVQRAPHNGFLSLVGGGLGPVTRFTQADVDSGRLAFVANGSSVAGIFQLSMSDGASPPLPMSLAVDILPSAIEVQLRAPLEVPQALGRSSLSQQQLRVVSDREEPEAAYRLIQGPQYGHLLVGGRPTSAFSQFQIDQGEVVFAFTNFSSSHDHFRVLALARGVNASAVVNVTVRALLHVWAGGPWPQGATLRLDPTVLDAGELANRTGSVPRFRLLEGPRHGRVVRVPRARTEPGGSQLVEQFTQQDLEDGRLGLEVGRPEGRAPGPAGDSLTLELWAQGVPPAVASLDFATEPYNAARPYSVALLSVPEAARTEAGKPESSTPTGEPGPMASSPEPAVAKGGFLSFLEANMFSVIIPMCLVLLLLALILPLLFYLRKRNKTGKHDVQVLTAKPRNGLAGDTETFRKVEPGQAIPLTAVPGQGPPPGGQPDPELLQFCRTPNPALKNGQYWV

## HMW-MAA (CSPG4)-specific mouse mAb 225.28 (antibody)
[1]
  % of cells that express CSPG4: 99.8%
  MFI: 586
[2]
  % of cells that express CSPG4: 99.8%
  MFI: 572
[3]
  % of cells that express CSPG4: 99.9%
  MFI: 607
[4]
  % of cells that express CSPG4: 99.9%
  MFI: 280
[5]
  % of cells that express CSPG4: 99.8%
  MFI: 493
[6]
  % of cells that express CSPG4: 99.9%
  MFI: 890
[7]
  % of cells that express CSPG4: 99.9%
  MFI: 117
[8]
  % of cells that express CSPG4: 78.4%
  MFI: 20.2
[9]
  % of cells that express CSPG4: 40.8%
  MFI: 274
[10]
  % of cells that express CSPG4: 88.2%
  MFI: 130
[11]
  % of cells that express CSPG4: 99.7%
  MFI: 581
[12]
  % of cells that express CSPG4: 99.9%
  MFI: 917
[13]
  % of cells that express CSPG4: 99.6%
  MFI: 275
[14]
  % of cells that express CSPG4: 80%
  MFI: 437
[15]
  % of cells that express CSPG4: 99.4%
  MFI: 1210
[16]
  % of cells that express CSPG4: 93%
  MFI: 55.8
